Reference: patent US20170342349A1, “STABILIZED ENZYME COMPOSITIONS” (NOVOZYMES A/S, priority 2014, published 2017)

How the values were obtained:
[1] = molecular target: Protease C (SEQ ID NO 6) (Lederbergia lenta (Bacillus lentus)) (UniProt P29600); assay: Ki fitted from Suc-AAPF-pNA activity in Model B detergent; IF relative to SEQ ID NO 6 (the reference itself)
[2] = molecular target: TY145 (SEQ ID NO 3) variant I150A + S173P + S175P + F180Y; assay: Ki fitted from Suc-AAPF-pNA activity in Model B detergent; IF relative to SEQ ID NO 3 comprising S173P + S175P + F180Y
[3] = molecular target: TY145 (SEQ ID NO 3) variant I150N + S173P + S175P + F180Y; assay: as above
[4] = molecular target: TY145 (SEQ ID NO 3) variant I150S + S173P + S175P + F180Y; assay: as above
[5] = molecular target: TY145 (SEQ ID NO 3) variant I150T + S173P + S175P + F180Y; assay: as above
TY145 (SEQ ID NO 3) variant I150T + S173P + S175P + F180Y, sequence (chain, as listed by the source I150T S173P S175P F180Y I150T S173P S175P F180Y limits assumed): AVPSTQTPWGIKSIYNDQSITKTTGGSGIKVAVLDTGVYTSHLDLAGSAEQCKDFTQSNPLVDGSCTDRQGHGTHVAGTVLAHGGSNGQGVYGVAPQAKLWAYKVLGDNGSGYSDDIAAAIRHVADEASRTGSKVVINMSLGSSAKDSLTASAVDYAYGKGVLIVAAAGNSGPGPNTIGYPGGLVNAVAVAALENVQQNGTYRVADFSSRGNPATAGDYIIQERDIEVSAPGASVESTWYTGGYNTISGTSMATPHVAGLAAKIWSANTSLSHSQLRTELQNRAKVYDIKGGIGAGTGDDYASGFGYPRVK

[6] = molecular target: TY145 (SEQ ID NO 3) variant I150V + S173P + S175P + F180Y; assay: as above
[7] = molecular target: TY145 (SEQ ID NO 3) variant K146F + S173P + S175P + F180Y; assay: as above
[8] = molecular target: TY145 (SEQ ID NO 3) variant K146S + S173P + S175P + F180Y; assay: as above
[9] = molecular target: TY145 (SEQ ID NO 3) variant K146W + S173P + S175P + F180Y; assay: as above
[10] = molecular target: TY145 (SEQ ID NO 3) variant Q70F + S173P + S175P + F180Y; assay: as above
TY145 (SEQ ID NO 3) variant Q70F + S173P + S175P + F180Y, sequence (chain, as listed by the source Q70F S173P S175P F180Y Q70F S173P S175P F180Y limits assumed): as the sequence (chain, as listed by the source I150T S173P S175P F180Y I150T S173P S175P F180Y limits assumed) above, with Q70F, T150I counted along it

[11] = molecular target: TY145 (SEQ ID NO 3) variant Q70Y + S173P + S175P + F180Y; assay: as above
TY145 (SEQ ID NO 3) variant Q70Y + S173P + S175P + F180Y, sequence (chain, as listed by the source Q70Y S173P S175P F180Y Q70Y S173P S175P F180Y limits assumed): as the sequence (chain, as listed by the source I150T S173P S175P F180Y I150T S173P S175P F180Y limits assumed) above, with Q70Y, T150I counted along it

[12] = molecular target: TY145 (SEQ ID NO 3) variant S114F + S173P + S175P + F180Y; assay: as above
[13] = molecular target: TY145 (SEQ ID NO 3) variant S114Q + S173P + S175P + F180Y; assay: as above
[14] = molecular target: TY145 (SEQ ID NO 3) variant S173P + S175P + F180Y + G182A; assay: as above
TY145 (SEQ ID NO 3) variant S173P + S175P + F180Y, sequence (chain, as listed by the source S173P S175P F180Y S173P S175P F180Y limits assumed): as the sequence (chain, as listed by the source I150T S173P S175P F180Y I150T S173P S175P F180Y limits assumed) above, with T150I counted along it

[15] = molecular target: TY145 (SEQ ID NO 3) variant S173P + S175P + F180Y + L184D; assay: as above
[16] = molecular target: TY145 (SEQ ID NO 3) variant S173P + S175P + F180Y + L184F; assay: as above
[17] = molecular target: TY145 (SEQ ID NO 3) variant S173P + S175P + F180Y + L184H; assay: as above
[18] = molecular target: TY145 (SEQ ID NO 3) variant S173P + S175P + F180Y + L184W; assay: as above
[19] = molecular target: TY145 (SEQ ID NO 3) variant S173P + S175P + F180Y; assay: Ki fitted from Suc-AAPF-pNA activity in Model B detergent; IF relative to SEQ ID NO 3 comprising S173P + S175P + F180Y (the reference itself)

Substance: Inhibitor 1: Cbz-Gly-Ala-NHCH(CH2C6H4pOH)C(OH)(SO3Na)-H (peptide)
- IF (binding constant improvement factor, relative Ki) [1]: 1
- IF (binding constant improvement factor, relative Ki) [2]: 2.52
- IF (binding constant improvement factor, relative Ki) [3]: 3.58
- IF (binding constant improvement factor, relative Ki) [4]: 5.7
- IF (binding constant improvement factor, relative Ki) [5]: 4.15
- IF (binding constant improvement factor, relative Ki) [6]: 1.8
- IF (binding constant improvement factor, relative Ki) [7]: 5.17
- IF (binding constant improvement factor, relative Ki) [8]: 1.13
- IF (binding constant improvement factor, relative Ki) [9]: 5.47
- IF (binding constant improvement factor, relative Ki) [10]: 11.8
- IF (binding constant improvement factor, relative Ki) [11]: 7.44
- IF (binding constant improvement factor, relative Ki) [12]: 1.41
- IF (binding constant improvement factor, relative Ki) [13]: 2.03
- IF (binding constant improvement factor, relative Ki) [14]: 2.49
- IF (binding constant improvement factor, relative Ki) [15]: 3.28
- IF (binding constant improvement factor, relative Ki) [16]: 4.28
- IF (binding constant improvement factor, relative Ki) [17]: 2.5
- IF (binding constant improvement factor, relative Ki) [18]: 2.23
- IF (binding constant improvement factor, relative Ki) [19]: 1
